Experimental data published in the supplement of paper PMC9112550, “Optimization of the antimicrobial peptide Bac7 by deep mutational scanning” (BMC Biology, 2022).

System: Escherichia coli TOP10
Experiment: shrunken log2 fold change of peptide-encoding DNA abundance (4.5 h post-induction vs induction); higher = less antimicrobial activity (less host growth inhibition)
Conditions: time post-induction: 4.5 h; library: site-saturation at positions 5, 18, 19, 20
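Note: peptides expressed intracellularly from a pBAD plasmid library in pooled LB shake-flask culture, induced with 0.3% L-arabinose, DNA abundance read by NGS, three biological replicates, DESeq2 with apeglm shrinkage.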

Sequence | shrunken log2 fold change
RRIRNRPPRLPRPRPRPINCPRP | 0.00363
RRIRNRPPRLPRPRPRPIPAPRP | -0.0451
RRIRNRPPRLPRPRPRPIPEPRP | -0.147
RRIRNRPPRLPRPRPRPIQHPRP | -0.0743
RRIRNRPPRLPRPRPRPIQVPRP | -0.0304
RRIRNRPPRLPRPRPRPISAPRP | -0.0545
RRIRNRPPRLPRPRPRPISTPRP | -0.507
RRIRNRPPRLPRPRPRPIVRPRP | 0.0133
RRIRNRPPRLPRPRPRPIWEPRP | -0.131
RRIRNRPPRLPRPRPRPIWRPRP | 0.00377
RRIRNRPPRLPRPRPRPIYCPRP | -0.858
RRIRNRPPRLPRPRPRPIYMPRP | -0.473
RRIRNRPPRLPRPRPRPKATPRP | -0.0881
RRIRNRPPRLPRPRPRPKDSPRP | -0.0312
RRIRNRPPRLPRPRPRPKEAPRP | -0.00208
RRIRNRPPRLPRPRPRPKFKPRP | -0.508
RRIRNRPPRLPRPRPRPKGDPRP | 0.0687
RRIRNRPPRLPRPRPRPKGEPRP | -0.00804
RRIRNRPPRLPRPRPRPKHCPRP | -0.111
RRIRNRPPRLPRPRPRPKHDPRP | -0.287
RRIRNRPPRLPRPRPRPKHTPRP | -0.0718
RRIRNRPPRLPRPRPRPKICPRP | -0.262
RRIRNRPPRLPRPRPRPKIDPRP | -0.626
RRIRNRPPRLPRPRPRPKIPPRP | -0.255
RRIRNRPPRLPRPRPRPKKPPRP | -0.0506

Sequence | shrunken log2 fold change
RRIRNRPPRLPRPRPRPKKSPRP | 0.129
RRIRNRPPRLPRPRPRPKKTPRP | -0.197
RRIRNRPPRLPRPRPRPKLCPRP | 0.163
RRIRNRPPRLPRPRPRPKNVPRP | -0.267
RRIRNRPPRLPRPRPRPKPEPRP | 0.0739
RRIRNRPPRLPRPRPRPKPLPRP | -0.102
RRIRNRPPRLPRPRPRPKPQPRP | 0.41
RRIRNRPPRLPRPRPRPKQSPRP | -0.135
RRIRNRPPRLPRPRPRPKRAPRP | 0.146
RRIRNRPPRLPRPRPRPKTAPRP | -0.232
RRIRNRPPRLPRPRPRPKTRPRP | 0.138
RRIRNRPPRLPRPRPRPKVDPRP | 0.147
RRIRNRPPRLPRPRPRPKWTPRP | -0.0342
RRIRNRPPRLPRPRPRPKYFPRP | -0.0727
RRIRNRPPRLPRPRPRPKYKPRP | -0.726
RRIRNRPPRLPRPRPRPLAMPRP | -0.21
RRIRNRPPRLPRPRPRPLAVPRP | 0.0686
RRIRNRPPRLPRPRPRPLCQPRP | -0.307
RRIRNRPPRLPRPRPRPLCRPRP | -0.372
RRIRNRPPRLPRPRPRPLCVPRP | -0.197
RRIRNRPPRLPRPRPRPLCYPRP | -0.781
RRIRNRPPRLPRPRPRPLDDPRP | -0.0578
RRIRNRPPRLPRPRPRPLDSPRP | -0.125
RRIRNRPPRLPRPRPRPLEDPRP | 0.0414
RRIRNRPPRLPRPRPRPLFSPRP | -0.753

Sequence | shrunken log2 fold change
RRIRNRPPRLPRPRPRPLGCPRP | -0.27
RRIRNRPPRLPRPRPRPLGMPRP | -0.109
RRIRNRPPRLPRPRPRPLIEPRP | -0.284
RRIRNRPPRLPRPRPRPLKCPRP | 0.0144
RRIRNRPPRLPRPRPRPLKKPRP | -0.0418
RRIRNRPPRLPRPRPRPLLWPRP | 0.369
RRIRNRPPRLPRPRPRPLMDPRP | 0.0545
RRIRNRPPRLPRPRPRPLMGPRP | -0.254
RRIRNRPPRLPRPRPRPLMPPRP | -0.173
RRIRNRPPRLPRPRPRPLMQPRP | -0.0301
RRIRNRPPRLPRPRPRPLNWPRP | -0.269
RRIRNRPPRLPRPRPRPLPGPRP | 0.143
RRIRNRPPRLPRPRPRPLPKPRP | 0.402
RRIRNRPPRLPRPRPRPLPRPRP | 0.102
RRIRNRPPRLPRPRPRPLRPPRP | 0.998
RRIRNRPPRLPRPRPRPLSLPRP | -0.291
RRIRNRPPRLPRPRPRPLSYPRP | -0.319
RRIRNRPPRLPRPRPRPLVVPRP | -0.117
RRIRNRPPRLPRPRPRPLWCPRP | -0.0608
RRIRNRPPRLPRPRPRPLWEPRP | -0.106
RRIRNRPPRLPRPRPRPLWIPRP | -0.286
RRIRNRPPRLPRPRPRPLWKPRP | -0.422
RRIRNRPPRLPRPRPRPLWMPRP | -0.587
RRIRNRPPRLPRPRPRPLWVPRP | -0.0871
RRIRNRPPRLPRPRPRPLYQPRP | -0.357

Sequence | shrunken log2 fold change
RRIRNRPPRLPRPRPRPMATPRP | -0.0123
RRIRNRPPRLPRPRPRPMCRPRP | -0.0579
RRIRNRPPRLPRPRPRPMDVPRP | 0.0039
RRIRNRPPRLPRPRPRPMEQPRP | -0.208
RRIRNRPPRLPRPRPRPMGPPRP | 0.0762
RRIRNRPPRLPRPRPRPMHGPRP | -0.0225
RRIRNRPPRLPRPRPRPMHHPRP | -0.653
RRIRNRPPRLPRPRPRPMIFPRP | -0.287
RRIRNRPPRLPRPRPRPMIKPRP | -0.456
RRIRNRPPRLPRPRPRPMILPRP | -0.0112
RRIRNRPPRLPRPRPRPMIRPRP | -0.0231
RRIRNRPPRLPRPRPRPMKNPRP | -0.238
RRIRNRPPRLPRPRPRPMMLPRP | -0.0295
RRIRNRPPRLPRPRPRPMMRPRP | 0.0611
RRIRNRPPRLPRPRPRPMNGPRP | 0.015
RRIRNRPPRLPRPRPRPMNWPRP | 0.127
RRIRNRPPRLPRPRPRPMPIPRP | -0.0173
RRIRNRPPRLPRPRPRPMPNPRP | -0.0406
RRIRNRPPRLPRPRPRPMRIPRP | 0.134
RRIRNRPPRLPRPRPRPMSHPRP | -0.249
RRIRNRPPRLPRPRPRPMSRPRP | -0.094
RRIRNRPPRLPRPRPRPMTWPRP | 0.0964
RRIRNRPPRLPRPRPRPMVCPRP | -0.018
RRIRNRPPRLPRPRPRPMVQPRP | -0.0629
RRIRNRPPRLPRPRPRPMWCPRP | -0.0647

Sequence | shrunken log2 fold change
RRIRNRPPRLPRPRPRPMWHPRP | -0.404
RRIRNRPPRLPRPRPRPMWPPRP | -0.00481
RRIRNRPPRLPRPRPRPMYVPRP | 0.0786
RRIRNRPPRLPRPRPRPMYWPRP | -0.000123
RRIRNRPPRLPRPRPRPMYYPRP | 0.0222
RRIRNRPPRLPRPRPRPNAAPRP | -0.149
RRIRNRPPRLPRPRPRPNAPPRP | -0.194
RRIRNRPPRLPRPRPRPNCHPRP | 0.0111
RRIRNRPPRLPRPRPRPNCVPRP | 0.393
RRIRNRPPRLPRPRPRPNDCPRP | 0.0423
RRIRNRPPRLPRPRPRPNEEPRP | -0.00613
RRIRNRPPRLPRPRPRPNFFPRP | 0.0771
RRIRNRPPRLPRPRPRPNFYPRP | -0.225
RRIRNRPPRLPRPRPRPNGAPRP | -0.0902
RRIRNRPPRLPRPRPRPNKMPRP | -0.0283
RRIRNRPPRLPRPRPRPNNFPRP | -0.447
RRIRNRPPRLPRPRPRPNNHPRP | -0.741
RRIRNRPPRLPRPRPRPNNNPRP | -0.867
RRIRNRPPRLPRPRPRPNPCPRP | -0.1
RRIRNRPPRLPRPRPRPNSIPRP | -0.728
RRIRNRPPRLPRPRPRPNSNPRP | -0.744
RRIRNRPPRLPRPRPRPNSRPRP | -0.266
RRIRNRPPRLPRPRPRPNTMPRP | 0.402
RRIRNRPPRLPRPRPRPNVCPRP | 0.00455
RRIRNRPPRLPRPRPRPNVDPRP | 0.112

Sequence | shrunken log2 fold change
RRIRNRPPRLPRPRPRPNVKPRP | -0.324
RRIRNRPPRLPRPRPRPNVLPRP | -0.178
RRIRNRPPRLPRPRPRPNYFPRP | 0.169
RRIRNRPPRLPRPRPRPNYIPRP | -0.318
RRIRNRPPRLPRPRPRPPAKPRP | 0.521
RRIRNRPPRLPRPRPRPPANPRP | 0.262
RRIRNRPPRLPRPRPRPPCDPRP | -0.0173
RRIRNRPPRLPRPRPRPPCMPRP | -0.0283
RRIRNRPPRLPRPRPRPPCVPRP | 0.0341
RRIRNRPPRLPRPRPRPPDLPRP | 0.101
RRIRNRPPRLPRPRPRPPENPRP | 0.181
RRIRNRPPRLPRPRPRPPFGPRP | 0.291
RRIRNRPPRLPRPRPRPPGTPRP | 0.241
RRIRNRPPRLPRPRPRPPIAPRP | -0.312
RRIRNRPPRLPRPRPRPPICPRP | 0.0224
RRIRNRPPRLPRPRPRPPKIPRP | 0.0999
RRIRNRPPRLPRPRPRPPKYPRP | -0.349
RRIRNRPPRLPRPRPRPPLFPRP | 0.00419
RRIRNRPPRLPRPRPRPPMIPRP | 0.102
RRIRNRPPRLPRPRPRPPMVPRP | -0.0558
RRIRNRPPRLPRPRPRPPNWPRP | 0.217
RRIRNRPPRLPRPRPRPPPPPRP | 1.25
RRIRNRPPRLPRPRPRPPPTPRP | 0.867
RRIRNRPPRLPRPRPRPPPYPRP | 0.534
RRIRNRPPRLPRPRPRPPQEPRP | -0.0479
